One substance from paper PMC7039703 can be followed below.

Test [1] has as its target FcγRIIIaV (human) (UniProt P08637). Briefly: BLI.
Test [2] has as its target His-tagged FcγRI (human) (UniProt P12314). Briefly: ELISA.
Test [3] addresses His-tagged FcγRIIB (human) (UniProt P31994). Briefly: ELISA.
Test [4] addresses His-tagged FcγRIIaR (human) (UniProt P12318). Briefly: ELISA.
Chain of UniProt P12318 (P12318 34-217): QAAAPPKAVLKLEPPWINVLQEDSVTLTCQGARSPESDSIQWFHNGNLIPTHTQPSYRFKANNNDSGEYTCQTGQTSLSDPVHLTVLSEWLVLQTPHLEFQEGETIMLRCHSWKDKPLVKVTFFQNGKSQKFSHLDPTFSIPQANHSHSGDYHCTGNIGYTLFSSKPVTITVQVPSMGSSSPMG

Chain of UniProt P12314 (P12314 16-292): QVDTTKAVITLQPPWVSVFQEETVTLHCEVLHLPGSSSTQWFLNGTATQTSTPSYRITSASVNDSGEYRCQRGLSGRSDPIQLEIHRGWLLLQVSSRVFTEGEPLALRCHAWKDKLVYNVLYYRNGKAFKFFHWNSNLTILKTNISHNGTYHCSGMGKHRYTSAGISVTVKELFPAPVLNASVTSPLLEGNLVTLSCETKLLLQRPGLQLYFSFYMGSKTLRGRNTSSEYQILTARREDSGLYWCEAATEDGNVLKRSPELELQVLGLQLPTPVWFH
Chain of UniProt P08637 (P08637 17-208): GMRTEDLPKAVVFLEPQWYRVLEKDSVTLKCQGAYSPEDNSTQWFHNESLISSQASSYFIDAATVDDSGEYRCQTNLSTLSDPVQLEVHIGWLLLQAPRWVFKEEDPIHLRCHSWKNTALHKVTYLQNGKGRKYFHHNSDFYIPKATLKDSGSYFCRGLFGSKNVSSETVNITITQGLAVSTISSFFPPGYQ
Chain of UniProt P31994 (P31994 43-217): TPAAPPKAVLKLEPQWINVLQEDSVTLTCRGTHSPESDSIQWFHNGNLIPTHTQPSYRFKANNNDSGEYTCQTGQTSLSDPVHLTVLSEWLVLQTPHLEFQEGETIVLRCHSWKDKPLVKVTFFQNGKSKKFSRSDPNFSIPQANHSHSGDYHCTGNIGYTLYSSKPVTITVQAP

In test [1], “monoclonal anti-CD20 antibody GA101 produced in 293SGlycoDelete cells” displayed a fold lower binding affinity against 293S anti-CD20 of 5.8 fold. Moreover, the fold reduction of binding competition against 293S anti-CD20 in test [2], in test [3] and in test [4] was > 10 fold in each case.
